Here are results for 16 sequences from a protein production outcome set (Wang et al. 2014).

The nature of this data set: label from the status in PepcDB records.

As for “MAKIDALAPQYSRIILLGHSAGGMIVRDAYLLAAGAYLDQPSRGAWWSKVESVLLFASINRGFRPYATATWALGMALMKLVSLQWLLLKPPSWFTLGWLMELEKGSFFVTDLRLSWMRHFHERDDEHRPFVVQFLGDIDGVVAREDVRDTEAFANSYTVTIEGADHSNLFDPAAPPGAAGFMRIMEVFRNPDPQLHEPEQAGELPATGPGRVVFVLHGIRDGNSGWVTDIAEAIEQQAKSDGQGKPLAAACSGHESPVLVDRSTYGWFSAIKFALPWVRRGNLAWFLDRYSYHVARNPDVQFHFVGHSNGTYILGTSLLEVSSLKFDRVYLAGSVLPREFPWQRMMLRRQVATVANQCSSEDWPVGGLCRGLHLIGFRDVGTGGVDGFDELRDLPTQPQTLWFKGDHGKPLQRPNQPNIVNYVLASHIATPLLSAPTGADLCERPSFWFRARMYGFALLTALGVGAAFYGAWWGFTHDHEGLVIAGILLLYFVLNTI”, the protein production result is on record as “failed”.

As to “MAKKDNFEEYAQLEEYASAEDISRVRAELLTCPELNTSLAGTIIEIDKNYAKSILITTSEMVADDQGLIFDAFIFAAANYVAQASINKEFSVIIGSKCFFYAPLKLGDVLELEAHALFDETSKKRDVKVVGHVKEVKMFEGTIQVVSTDEHIFKLKRPPLNTVKPTENQEQGAKINNPEAVAAALMASVGGK”, the protein production result was “failed”.

For “MAKKILILGAAGEIARMLTDRLLAESDAELVLYGRNVSQRLALEENSRIKLVDGTFGESEKLEAALAGVDVVYLNSMSSPADTASVVQALEKAGVKRLLGATIAGVEDEVPYELATWTKNSLPASYIKGEYDSAKIVRDSNLDYTLLRLTWLFNDESDREYELVPSGVEFADAEVSRQAITQAILDILNGEESEYVRKSFGLGKPNTHYGKPSFY”, the protein production result is given as “failed”.

As to “MAKKPAAHATKPKPWTEMATHLVDVAMGRKPADLVIRNGRWVNVHSGEIIAGTDIAIAGGRFAYCGPNASHAIGQGTKVVDAGGRYLVPGLCDAHMHVESGMVTVTEFCRAVIPHGTTSMFIDPHEIANVLGLPGVRLMHDEAVAMPINVHVQMPSCVPSAPGLEHAGAELTVADVAEAMTWENIIGLGEVMNFPGVAANDPVMSGEIAATVRAGKTVGGHYASRDLGLPFHGYVAGGPEDDHEGTRAEDAIARVRQGMKAMLRLGSAWYDVASQIKAVTEGGIDPRNFILCTDDSHSGTLVHEGHMDRVVRHAIQQGLKPVTAIQMATINTAQHFRLEREIGSIAPGRLADLLIVSDLAAMTIDEVYARGVRLAKGGKLDIDIPAYDYPKTAKNTVKLGKKLRAGDFDITAPKGANEVRVRVIGVIENQAPTRALEADLPVEDGLVAMDRRNDVCQIALVERHRGTGGVTNAFVSGFGYMGDCAMASSVAHDAHHIICVGTNKQDMALAVNRLGQVGGGVVLFSKGKELALVEMPIAGLMSDERAEIVAAKAEKLTEAMRKMGCSLNNAYMQHSLLALVVIPELRISDVGLIDVTTFQKVDLFV”, the protein production entry is on record as “failed”.

Turning to “MAKKTSSLLSRRRTRRPGEPPLDLGSIPWLGYALDFGKDAASFLTRMKEKHGDIFTILVGGRYVTVLLDPHSYDAVVWEPRTRLDFHAYAIFLMERIFDVQLPHYSPSDEKARMKLTLLHRELQALTEAMYTNLHAVLLGDATEAGSGWHEMGLLDFSYSFLLRAGYLTLYGIEALPRTHESQAQDRVHSADVFHTFRQLDRLLPKLARGSLSVGDKDHMCSVKSRLWKLLSPARLARRAHRSKWLESYLLHLEEMGVSEEMQARALVLQLWATQGNMGPAAFWLLLFLLKNPEALAAVRGELESILWQAEQPVSQTTTLPQKVLDSTPVLDSVLSESLRLTAAPFITREVVVDLAMPMADGREFNLRRGDRLLLFPFLSPQRDPEIYTDPEVFKYNRFLNPDGSEKKDFYKDGKRLKNYNMPWGAGHNHCLGRSYAVNSIKQFVFLVLVHLDLELINADVEIPEFDLSRYGFGLMQPEHDVPVRYRIRPHHHH”, the protein production entry was “not failed”.

Turning to “MAKKVAVLAVNPVNGCGLFQYLEAFFENGISYKVFAVSDTKEIKTNSGMVLIVDDVIANLKGHEDEFDALVFSCGDAVPVFQQYANQPYNVDLMEVIKTFGEKGKMMIGHCAGAMMFDFTGITKGKKVAVHPLAKPAIQNGIATDEKSEIDGNFFTAQDENTIWTMLPKVIEALKLEHHHHHH”, the protein production entry is recorded as “not failed”.

Consider “MAKMIILPKLVQKSVVSPKQTSQERVVTSTFSPPKPAGENISVQRRCELSEYHASGHVISHLPPPFAVAKPTPTTSLLPQPVRLINADAEDASCSSTPSWRIKKSLTCVCFNRKRAYERICSNLTPLQEERLKRLRKRMKNYYDASRPDHQDALRALWSATYPDEKLQDLISDQWKNMGWQGKDPSTDFRGAGFISLENLLFFAKTFSTSFQRLLNKQGGKRAAWEYPFAVAGVNITFMIMQMLDLEASKPRSFIRLVFLQMLSESEWAFDLLYCVAFVVMDKQWLDKNATYMEFNDVLRCTRGQLERELMMDDVFRIEDMPSFSLLS”, for which the protein production entry is “failed”.

For the sequence “MAKNDKINFSTPSGFPEFLPSEKRLELYLLDTIRRVYESYGFTPIETPAVERLEVLQAKGNQGDNIIYGLEPILPPNRQAEKDKSGDTGSEARALKFDQTVPLAAYIARHLNDLTFPFARYQMDVVFRGERAKDGRFRQFRQCDIDVVGREKLSLLYDAQMPAIITEIFEAVNIGDFVIRINNRKVLTGFFQSLNISETQIKSCISIIDNLEKIGEAKVKLELEKEGINPEQTQKIIDFVKIDGSVDDVLDKLKHLSQTLPESEQFNLGVSELETVITGVRNLGVPDKRFCIDLAIARGLNYYTGTVYETTLIGHEALGSICSGGRYEELVGTFIGEKMPGVGISIGLTRLISRLLKAGILNTLPPTPAQVVVVNMQDELMPTYLKVSQQLRQAGLNVITNFEKRQLGKQFQAADKQGIRFCVIIGADEAAAQKSSLKDLQSGEQVEVALADLAEEIKRRLT”, the protein production result is listed as “not failed”.

On to “MAKNQWNELLLEQVRQLPMASSKEHVQLRLNLLIVEASKQKKTIPTEFELIFQAYQLSRSGKLIDSISVFFDAINFSQQNQQEFLICFCHYNIGTLYGMLGNYFYAQKFLAKAEKMQQFCDGYITGIIKNNIGDIFRQIGNFNEALIYLTQAAELLSQHGPKTAAALSYFNIAEIKAKQFLFTEANELLENLYQDIKNEPRYLGFYYKIKAEIASHSGEFEQADKLHLLSIENMQISEHDYYYAEMILEYCHFLTSCLQYKKLDQFIALGLAVAKKIESDKLIDGFNDIILLRIKDIDDINIREKHYQTLTSSLLNSRRELLKREGDYLQQLYRLNVAKLNLSTMKSLSDNLAVINKVGHYINTSSDIKNALPQIQQDLASLFQTDTLALGFYNSEQDQITIHYLDNNLPAQTPYITDCKSEATYMSYCIKSNSAFYFNHMNSEQKVAMLGDRCDSKVQFKSAMFSPITINGEVKGVFTIQARESYQYQTFHFELFSQLISYISIALENQYNRQQLLHLSQTDHLTQIWNRKSLEAHFNQLKQQQNQEYTGIMIDIDHYKEYNDTYGHIAGDEVLIQVSRLIKQGFHSLETQVYRYGGDEFFVLIPSIKPEKIRQKLDKLLIEVKKLLIPHKASTCSCYLSISVGIGYNKDPENQLSLNSLVNTADRALYQAKENGRNCYFELAHIKETMY”, for which the protein production result was “failed”.

Consider “MAKNTLSFVCQNCGAAYNRWQGKCESCGEWNTLAEEDTSGSVPVSIRSKRKGRTFALESLAGKSPDAPRLSSGMTELDRVTGGGFVRGSVLLVGGDPGIGKSTLLTQATSLMARAGHRIVYISGEEAIAQVRLRAERLGLSDAPVQLAAETSVEDIVSTLSEGAVPRLIVIDSIQTMWTDTVESAPGTVTQVRASAQALIRFAKKTGAAIILVGHVTKDGQIAGPRVVEHMVDAVMSFEGEGSQQFRILRAVKNRFGPTDEIGVFEMTGLGLREVTNPSELFLSERDLGTPGTAVFAGIEGTRPVLVELQALVAPTSLGTPRRAVVGWDPSRLSMVLAVLEAHCGVKLSGHDVYLNVAGGLRIHEPAADLAAAAALVSSLVNAQLPTDAVYFGEISLSGVVRPVAQTPARLKEAAKLGFQRAVLPESARGEAGGDAGLSLNAVNSLTTLVAEIAARGSRRGESGGSAEKNATPARFRRGEGLEHHHHHH”, for which the protein production entry is given as “failed”.

For “MAKNYDQLAKTIIKDVGGKDNVNSVVHCATRLRFKLKDEKKADDDALKNTDGVVTVVKAGGQYQVVIGNEVADVYDAVLKEGGFSGGGEVPDDYSEDDNSSFVDKAVALISGIFTDILAPLSAGGIIKGLVVLAAAMGWLSTSSGAYQILYAIGDSIFYFLPIFLGVTAARRFHMNQFIGLAIGATLTYPTMVQLAASKTVLGTLFAGTPFASQIHTTFFGIPVITMNYTSTVLPVLFAVWFASIIEHWSKKWIPSVVQMFLVPVVTMIITLPIAFIVIGPVMTWVGNAIGAVMSGIYHFSPIIAGLLLGGLWQVLVIFGVHWGIVAVTTADLAALGYDPILGMTCMVCYAQIGVVLAIIKQTKDKKLKENATGAFFSGLFGVTEPAIYGITLPRKRPFVLSCIAGAVSGAIIGAFHSVLYILPSMGFFAIPAYINPKGGSMTQIIGVIIAGVVAFIVGFALQMLFGKKSVDAKYDKKQTEKVEVNETLQTTPDVATATLASPENGQIMPLSEVKDDVFSSGAMGKGIAIEPSDGVLHAPADGKIIMTFKTGHAIGMKTKNGAEILMHIGMDTANLQGKGFDTLVEKDQKVKAGDPLIKFDIDLIKKAGYPVTTPMVVTNSQDFDDIKQIVKGEVKVGQAVLELEAPEAKDVTTSVNGQVQLN”, the protein production result is on record as “failed”.

In the case of “MAKPGFRLALFATLLALIVVLLGAYTRLTHAGLGCPDWPGCYGFISVPKGEAQLAHAELHFPDTPVEAHKGWNEMIHRYFAGTLGLLIVLLAARAWTHRRHPGQPLKLPLFLLAVVFAQAAFGMWTVTLKLWPQVVTAHLLGGFATLSLLFLLTLRLSGVLPALIVPRRLQYWATAGLVLVIGQIALGGWVSSNYAAVACIDLPTCHGQWWPNMDFANGFHLTQHIGPNYLGGQLDSDARTAIHMTHRVGAVLVTLVLLGLAWQLRQTGMTRLAGLVLVALGAQVSLGLSNVFFHLPLPVAVAHNAGGAALLLTLVLVNYHARTSLVRARDRLPLGWRLSPRKQMAGPITIKGEMPWRL”, the protein production entry was “failed”.

Take “MAKRGREAKSAERTRQLAESEARLRLMADAAPFPLAMNRLAGGELIYANARAEELFGARLRPDRPLRVQDFYAEPAEREKVARALLEGRAVRDREVRLRDAGGRPFWALVSCELVQSGETWYVINGVNDISERKRLEQSLQDANAALRSHLREIELLQQGLREQALRDPLTGLFNRRHLDDILPRVLAHMLALHREVAVLMVDADHFKRINDTYGHRCGDAVLTALGACLSDHFRSGDIVCRYGGEEFFVLLPGATLEAAYAKAEGLRRAVGERPMEALGHSLAVTLSIGLALCPLHGSDAESVVRAADEALYQAKRQGRDRVCVAARLQSLLS”: the protein production entry is “failed”.

Regarding “MAKSHPRWRLAKKVLTWLFFIAVVVLLVVYAKKVDWGDVWTVIRDYNRTALLSAVGLVIVSYLLYGCYDLLGRLYCGHKLAKRQVMLVSFVCYAFNLTLSTWVGGIGMRYRLYSRLGLPGSTITRIFSLSITTNWLGYILLGGIIFTFGIVQLPDHWYIDAGTLRILGIVLLLIIAVYLWFCAFAKRRHMTIKGQKLVLPSWKFALAQMAISSANWMAMGAIIWLLMGQDVNYFFVLGVLLVSSIAGVIVHIPAGIGVLEAVFLALLAGEHTSQGTIIAALLAYRVLYYFIPLLLALVCYLILESRAKKLRAKNERAMAK”, the protein production result is listed as “failed”.

Regarding “MAKSPKFMVFHLRELIYTLVFILLGIILIISLVIMFYNRGNKQEKEENTGVYEPGVYTSCVTLNGNPMDVKVTLDDNHINSITVDNVSNTITTMYPLVEPAFNDIANQIVTNQSLENIKFDDNSKYTYTILYNAILDTIEKGKVGE”, the protein production entry was “failed”.

Turning to “MAKSSVANIFTFSNLSCGLLSLIMTLAASSTNNEYYKLACLFILIAGIIDRYDGRVARALNVSSELGKELDSLADLVSFGVAPSILAYHLCNFSSNFNFLGYIFVLIFPIAGAYRLARYNLSTFDGVFRGIPITLAGMFMALYSLIYLLLNTQPNAVLTIVIMLILSYLMVSNLKLKKL”, the protein production result is on record as “not failed”.
